T1: human PAC1 receptor extracellular domain (ECD) (human, UniProt P41586 24-153)
T1 construct: also called PAC1 receptor ECD; PAC1 ECD
T1 sequence: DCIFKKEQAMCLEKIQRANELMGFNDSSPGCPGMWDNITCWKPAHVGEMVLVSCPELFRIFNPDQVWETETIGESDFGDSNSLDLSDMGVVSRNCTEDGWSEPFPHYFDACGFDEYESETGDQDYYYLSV

B1: anti-CGRP receptor variant 06, yeast-displayed Fab (Fab, V domains shown)
VH: QVQLVESGGGVVQPGRSLRLSCAASGFTFSSFGMHWVRQAPGKGLEWVAVISFDGSIKYSVDSVKGRFTISRDNSKNTLFLQMNSLRAEDTAVYYCARDRLNYYESSGYYHYKYYGMAVWGQGTTVTVSS
VL: QSVLTQPPSVSAAPGQKVTISCSGSYSNIGRKSVSWYQQLPGTAPKLLIYDNNKRPSGIPDRFSGSKSGTSATLGITGLQTGDEADYYCGTWDSRLSAVVFGGGTKLTVLG
notes: also called Variant Ab ID 06
B2: anti-CGRP receptor variant 01, yeast-displayed Fab (Fab, V domains shown)
VH: B1 VH
VL: B1 VL with K32Y
notes: also called Variant Ab ID 01
B3: anti-CGRP receptor variant 09, yeast-displayed Fab (Fab, V domains shown)
VH: B1 VH with D54A, S56E, K58D, S60Y
VL: B1 VL with Y26S, R31N, K32N, S33Y
notes: also called Variant Ab ID 09
B4: anti-CGRP receptor variant 08, yeast-displayed Fab (Fab, V domains shown)
VH: B1 VH
VL: B1 VL with R31W, K32W, S33P
notes: also called Variant Ab ID 08
B5: anti-CGRP receptor variant 04, yeast-displayed Fab (Fab, V domains shown)
VH: B1 VH with E105R, S107F, H111G, K113H
VL: B1 VL with Y26S, R31N, K32N, S33Y
notes: also called Variant Ab ID 04
B6: anti-CGRP receptor variant 07, yeast-displayed Fab (Fab, V domains shown)
VH: B1 VH with T28Y, S30M, S31T, F32Y
VL: B1 VL with Y26S, R31N, K32N, S33Y
notes: also called Variant Ab ID 07
B7: anti-CGRP receptor variant 02, yeast-displayed Fab (Fab, V domains shown)
VH: B1 VH
VL: B1 VL with Y26R, R31I, S33A
notes: also called Variant Ab ID 02
B8: anti-CGRP receptor variant 13, yeast-displayed Fab (Fab, V domains shown)
VH: B1 VH
VL: B1 VL with Y26R, K32R, S33T
notes: also called Variant Ab ID 13
B9: anti-CGRP receptor variant 10, yeast-displayed Fab (Fab, V domains shown)
VH: B1 VH with T28F, S30G, F32Y, D54A, S56E, K58E, Y59H, S60Y
VL: B1 VL with Y26S, R31N, K32N, S33Y
notes: also called Variant Ab ID 10
B10: anti-CGRP receptor variant 05, yeast-displayed Fab (Fab, V domains shown)
VH: B1 VH
VL: QSVLTQPPSVSAAPGQKVTISCSGSFSNIGRSTVSWYQQLPGTAPKLLIYDNRWRAGGIPDRFSGSKSGTSATLGITGLQTGDEADYYCGTWDYQWKAVVFGGGTKLTVLG
notes: also called Variant Ab ID 05
B11: anti-CGRP receptor variant 12, yeast-displayed Fab (Fab, V domains shown)
VH: B1 VH
VL: B10 VL with F26R, S32Y, T33S, W54Y, G57Q, Y94W, Q95A, W96T, K97T, A98S
notes: also called Variant Ab ID 12
B12: 4E4.2 parental Fab, yeast-displayed (Fab, V domains shown)
VH: B1 VH
VL: B1 VL with Y26S, R31N, K32N, S33Y
notes: also called parental 4E4.2 Fab

Changes are numbered by the printed parent chain.

T4 sequence (Q16602 23-461 limits assumed, chain 1 of 2): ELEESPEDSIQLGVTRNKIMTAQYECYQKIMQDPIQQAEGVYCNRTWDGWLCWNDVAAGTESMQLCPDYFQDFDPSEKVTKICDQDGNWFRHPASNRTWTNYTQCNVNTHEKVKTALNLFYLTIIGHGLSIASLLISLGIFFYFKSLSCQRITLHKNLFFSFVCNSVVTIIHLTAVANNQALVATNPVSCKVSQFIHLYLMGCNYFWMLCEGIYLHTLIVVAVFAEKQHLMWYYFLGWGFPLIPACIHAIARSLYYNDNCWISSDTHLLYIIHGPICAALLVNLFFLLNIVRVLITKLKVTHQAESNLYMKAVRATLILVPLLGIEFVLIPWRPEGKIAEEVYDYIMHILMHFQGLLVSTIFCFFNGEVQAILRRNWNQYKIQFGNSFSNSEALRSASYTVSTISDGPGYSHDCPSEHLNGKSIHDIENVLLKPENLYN
T4 sequence (O60894 27-148 limits assumed, chain 2 of 2): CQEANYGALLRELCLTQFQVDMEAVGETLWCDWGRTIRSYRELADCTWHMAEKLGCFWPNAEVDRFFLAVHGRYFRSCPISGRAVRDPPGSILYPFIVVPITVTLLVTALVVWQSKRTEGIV
T3 sequence (A0A2K5VQ71 entry or part of it): as the sequence (Q16602 23-461 limits assumed, chain 1 of 2) above, with D55N, L431V counted along it

One test addresses T1, human PAC1 receptor extracellular …. Briefly: yeast-displayed Fab, FACS, 10 nM PAC1 receptor ECD.
As to B1, the “Mutant vs. 4E4.2 Parent B/D Ratio” value is 1 fold and the “Normalized Binding Signal/Display Signal (B/D)” value came to 0.1 ratio.
The like results for B2 were, in that order, 0.8 fold and 0.09 ratio.
For B3, the “Mutant vs. 4E4.2 Parent B/D Ratio” value was determined as 1.6 fold and the “Normalized Binding Signal/Display Signal (B/D)” value came out at 0.17 ratio.
In the same order, the values of B4 are 1 fold and 0.1 ratio.
In the same order, the values of B5 are 1.1 fold and 0.12 ratio.
The like results for B6 were, in that order, 1.2 fold and 0.13 ratio.
For B7, the “Mutant vs. 4E4.2 Parent B/D Ratio” value turned out to be 0.9 fold and the “Normalized Binding Signal/Display Signal (B/D)” value stood at 0.1 ratio.
The like results for B8 were, in that order, 1 fold and 0.11 ratio.
The like results for B9 were, in that order, 0.9 fold and 0.1 ratio.

For the next test, the target named is T2, human CGRP receptor extracellular domain (ECD) (human, UniProt Q16602 23-138; O60894 27-117).
T2 construct: also called CGRP receptor ECD; human CGRP receptor ECD
T2 sequence (Q16602 23-138 limits assumed, chain 1 of 2): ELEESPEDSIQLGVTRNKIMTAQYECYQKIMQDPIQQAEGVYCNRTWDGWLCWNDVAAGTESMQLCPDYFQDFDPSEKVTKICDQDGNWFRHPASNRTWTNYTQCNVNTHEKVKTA
T2 sequence (O60894 27-117 limits assumed, chain 2 of 2): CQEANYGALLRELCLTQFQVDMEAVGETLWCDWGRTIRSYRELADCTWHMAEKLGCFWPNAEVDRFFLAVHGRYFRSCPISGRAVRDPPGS
Briefly: yeast-displayed Fab, FACS, 1 nM human CGRP receptor ECD.
Take B1: the “Mutant vs. 4E4.2 Parent B/D Ratio” value amounted to 2.2 fold and the “Normalized Binding Signal/Display Signal (B/D)” value is 0.27 ratio.
In the same order, the values of B10 are 6.7 fold and 0.82 ratio.
In the case of B2, the “Mutant vs. 4E4.2 Parent B/D Ratio” value was 1.7 fold and the “Normalized Binding Signal/Display Signal (B/D)” value came to 0.21 ratio.
In the same order, the values of B3 are 3 fold and 0.38 ratio.
The like results for B4 were, in that order, 1.4 fold and 0.17 ratio.
The like results for B5 were, in that order, 1.6 fold and 0.2 ratio.
Turning to B6, the “Mutant vs. 4E4.2 Parent B/D Ratio” value came out at 1.8 fold and the “Normalized Binding Signal/Display Signal (B/D)” value stood at 0.22 ratio.
In the same order, the values of B7 are 1.4 fold and 0.17 ratio.
Consider B11, for which the “Mutant vs. 4E4.2 Parent B/D Ratio” value came out at 2.8 fold and the “Normalized Binding Signal/Display Signal (B/D)” value was found to be 0.35 ratio.
The like results for B8 were, in that order, 2.9 fold and 0.35 ratio.
In the same order, the values of B9 are 3.3 fold and 0.4 ratio.

Another test has as its target T2, human CGRP receptor extracellular …. Kind of test: yeast-displayed Fab, FACS, 10 nM human CGRP receptor ECD.
For B1, the “Mutant vs. 4E4.2 Parent B/D Ratio” value came out at 7.4 fold and the “Normalized Binding Signal/Display Signal (B/D)” value stood at 1.13 ratio.
In the same order, the values of B10 are 24.6 fold and 3.78 ratio.
In the same order, the values of B2 are 5.8 fold and 0.89 ratio.
In the same order, the values of B3 are 10.6 fold and 1.62 ratio.
Consider B4, for which the “Mutant vs. 4E4.2 Parent B/D Ratio” value stood at 3.1 fold and the “Normalized Binding Signal/Display Signal (B/D)” value came out at 0.48 ratio.
The like results for B5 were, in that order, 3.4 fold and 0.53 ratio.
The like results for B6 were, in that order, 5.3 fold and 0.81 ratio.
In the same order, the values of B7 are 3.8 fold and 0.58 ratio.
For the molecule B11, the “Mutant vs. 4E4.2 Parent B/D Ratio” value worked out at 9.7 fold and the “Normalized Binding Signal/Display Signal (B/D)” value amounted to 1.5 ratio.
The like results for B8 were, in that order, 9.8 fold and 1.51 ratio.
The like results for B9 were, in that order, 13.3 fold and 2.04 ratio.

The next test concerns the target T3, cynomolgus monkey CGRP receptor (cynomolgus monkey, UniProt A0A2K5VQ71 34-472).
T3 construct: whole, on cells; Presented as detergent-solubilized lysate of HEK cells expressing the cynomolgus receptor; also called Cyno CGRP Receptor; Cynomolgus Monkey CGRP Receptor/HEK detergent-solubilized cell lysate
Kind of test: yeast-displayed Fab, FACS, detergent-solubilized lysate of cynomolgus CGRP receptor/HEK cells vs blank cells.
As to B1, the “Cyno CGRP Receptor/Blank Cells Specific Binding” value came out at 4.8 ratio and the “Mutant vs. 4E4.2 Parent Specific Binding Ratio” value came to 2.5 fold.
With B12, the “Cyno CGRP Receptor/Blank Cells Specific Binding” value was 1.9 ratio and the “Mutant vs. 4E4.2 Parent Specific Binding Ratio” value worked out at 1 fold.
In the same order, the values of B10 are 5.2 ratio and 2.7 fold.
As to B2, the “Cyno CGRP Receptor/Blank Cells Specific Binding” value is 4.6 ratio and the “Mutant vs. 4E4.2 Parent Specific Binding Ratio” value stood at 2.4 fold.
Turning to B3, the “Cyno CGRP Receptor/Blank Cells Specific Binding” value amounted to 2.3 ratio and the “Mutant vs. 4E4.2 Parent Specific Binding Ratio” value turned out to be 1.2 fold.
Consider B4, for which the “Cyno CGRP Receptor/Blank Cells Specific Binding” value turned out to be 4.9 ratio and the “Mutant vs. 4E4.2 Parent Specific Binding Ratio” value was 2.5 fold.
The like results for B5 were, in that order, 3.1 ratio and 1.6 fold.
The like results for B6 were, in that order, 3.1 ratio and 1.6 fold.
The like results for B7 were, in that order, 5.3 ratio and 2.8 fold.
Take B11: the “Cyno CGRP Receptor/Blank Cells Specific Binding” value stood at 10.3 ratio and the “Mutant vs. 4E4.2 Parent Specific Binding Ratio” value is 5.4 fold.
Consider B8, for which the “Cyno CGRP Receptor/Blank Cells Specific Binding” value is 4.8 ratio and the “Mutant vs. 4E4.2 Parent Specific Binding Ratio” value came to 2.5 fold.
For B9, the “Cyno CGRP Receptor/Blank Cells Specific Binding” value was 3 ratio and the “Mutant vs. 4E4.2 Parent Specific Binding Ratio” value came to 1.6 fold.

A further test concerns the target T4, human CGRP receptor (human CRLR / human RAMP1 heterodimer) (human, UniProt Q16602 23-461; O60894 27-148).
T4 construct: Full-length receptor: endogenous on SK-N-MC (HTB-10) cells in the cAMP assay; also called hCGRP receptor on SK-N-MC (HTB-10) cells; Human CGRP Receptor/AMID detergent-solubilized cell lysate
Kind of test: yeast-displayed Fab, FACS, detergent-solubilized lysate of human CGRP receptor-expressing cells vs blank cells.
Turning to B1, the “Human CGRP Receptor/Blank Cells Specific Binding” value was found to be 17.5 ratio and the “Mutant vs. 4E4.2 Parent Specific Binding Ratio” value was 2.2 fold.
In the same order, the values of B12 are 8 ratio and 1 fold.
Take B10: the “Human CGRP Receptor/Blank Cells Specific Binding” value was 24.4 ratio and the “Mutant vs. 4E4.2 Parent Specific Binding Ratio” value came out at 3.1 fold.
B2: the “Human CGRP Receptor/Blank Cells Specific Binding” value turned out to be 25.8 ratio and the “Mutant vs. 4E4.2 Parent Specific Binding Ratio” value was determined as 3.2 fold.
For B3, the “Human CGRP Receptor/Blank Cells Specific Binding” value stood at 10.4 ratio and the “Mutant vs. 4E4.2 Parent Specific Binding Ratio” value worked out at 1.3 fold.
The like results for B4 were, in that order, 18 ratio and 2.3 fold.
The like results for B5 were, in that order, 9.5 ratio and 1.2 fold.
On to B6, for which the “Human CGRP Receptor/Blank Cells Specific Binding” value was determined as 11.7 ratio and the “Mutant vs. 4E4.2 Parent Specific Binding Ratio” value came to 1.5 fold.
In the same order, the values of B7 are 14.2 ratio and 1.8 fold.
Regarding B8, the “Human CGRP Receptor/Blank Cells Specific Binding” value came to 14.6 ratio and the “Mutant vs. 4E4.2 Parent Specific Binding Ratio” value was determined as 1.8 fold.
In the same order, the values of B9 are 20.7 ratio and 2.6 fold.

The values above are taken from patent US20220363770A1 (Amgen, published 2022).
